Measured values taken from patent publication US20150064747A1.

Molecular target: EBV DNA polymerase BALF5 catalytic subunit, full-length (Epstein-Barr Virus) (UniProt P03198)
Assay: cell-based or functional assay

EBV DNA polymerase BALF5 catalytic subunit, full-length (Epstein-Barr Virus), sequence (P03198 1-1015, tags or fused parts left off): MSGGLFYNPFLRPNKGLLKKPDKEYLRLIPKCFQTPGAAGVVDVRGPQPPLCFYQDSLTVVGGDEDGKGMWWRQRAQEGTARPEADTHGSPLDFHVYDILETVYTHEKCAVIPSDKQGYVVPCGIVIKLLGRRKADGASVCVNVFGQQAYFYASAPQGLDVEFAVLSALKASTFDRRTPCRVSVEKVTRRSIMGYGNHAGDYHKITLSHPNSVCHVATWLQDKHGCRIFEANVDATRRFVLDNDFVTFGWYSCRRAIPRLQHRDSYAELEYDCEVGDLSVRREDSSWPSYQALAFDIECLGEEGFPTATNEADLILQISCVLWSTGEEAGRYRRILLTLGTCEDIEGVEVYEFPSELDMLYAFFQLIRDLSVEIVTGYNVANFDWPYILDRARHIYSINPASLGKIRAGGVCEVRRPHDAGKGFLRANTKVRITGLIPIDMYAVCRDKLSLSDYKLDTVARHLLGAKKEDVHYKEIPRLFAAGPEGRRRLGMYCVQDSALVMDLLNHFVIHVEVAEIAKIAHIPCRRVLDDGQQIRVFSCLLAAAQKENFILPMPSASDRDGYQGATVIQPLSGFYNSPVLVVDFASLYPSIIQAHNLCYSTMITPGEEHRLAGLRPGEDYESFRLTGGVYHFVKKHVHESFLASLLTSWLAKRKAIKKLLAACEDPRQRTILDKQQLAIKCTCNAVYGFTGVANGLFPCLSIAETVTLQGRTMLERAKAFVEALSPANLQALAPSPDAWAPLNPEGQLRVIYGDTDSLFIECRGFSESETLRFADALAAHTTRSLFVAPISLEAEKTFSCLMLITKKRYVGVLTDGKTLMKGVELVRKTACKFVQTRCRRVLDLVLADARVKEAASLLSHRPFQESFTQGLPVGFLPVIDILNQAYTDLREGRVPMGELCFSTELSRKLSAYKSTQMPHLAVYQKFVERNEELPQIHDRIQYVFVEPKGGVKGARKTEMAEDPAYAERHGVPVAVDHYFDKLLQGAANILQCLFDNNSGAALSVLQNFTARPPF

In the case of “EBV BMRF1 processivity factor, full-length (from UniProt P03191 1-404)”, the DNA polymerase elongation activity on activated calf thymus DNA at 100 mM ammonium sulfate was greater than 100 fold.
